Laboratory results from US20090022714A1, “Combination methods of inhibiting tumor growth with a vascular endothelial growth factor receptor antagonist” (ImClone Systems, Inc., priority 2001, published 2009).

Target: chimeric receptor mouse flk-1 (VEGFR-2)/human fms expressed on transfected 3T3 cells (C441) (mouse; human) (UniProt P35918)
Assay: cell-based or functional assay

chimeric receptor mouse flk-1 (VEGFR-2)/human fms expressed on transfected 3T3 cells (C441) (mouse; human), sequence (P35918 other isoform, or with tags, fused parts or gaps mutant limits assumed): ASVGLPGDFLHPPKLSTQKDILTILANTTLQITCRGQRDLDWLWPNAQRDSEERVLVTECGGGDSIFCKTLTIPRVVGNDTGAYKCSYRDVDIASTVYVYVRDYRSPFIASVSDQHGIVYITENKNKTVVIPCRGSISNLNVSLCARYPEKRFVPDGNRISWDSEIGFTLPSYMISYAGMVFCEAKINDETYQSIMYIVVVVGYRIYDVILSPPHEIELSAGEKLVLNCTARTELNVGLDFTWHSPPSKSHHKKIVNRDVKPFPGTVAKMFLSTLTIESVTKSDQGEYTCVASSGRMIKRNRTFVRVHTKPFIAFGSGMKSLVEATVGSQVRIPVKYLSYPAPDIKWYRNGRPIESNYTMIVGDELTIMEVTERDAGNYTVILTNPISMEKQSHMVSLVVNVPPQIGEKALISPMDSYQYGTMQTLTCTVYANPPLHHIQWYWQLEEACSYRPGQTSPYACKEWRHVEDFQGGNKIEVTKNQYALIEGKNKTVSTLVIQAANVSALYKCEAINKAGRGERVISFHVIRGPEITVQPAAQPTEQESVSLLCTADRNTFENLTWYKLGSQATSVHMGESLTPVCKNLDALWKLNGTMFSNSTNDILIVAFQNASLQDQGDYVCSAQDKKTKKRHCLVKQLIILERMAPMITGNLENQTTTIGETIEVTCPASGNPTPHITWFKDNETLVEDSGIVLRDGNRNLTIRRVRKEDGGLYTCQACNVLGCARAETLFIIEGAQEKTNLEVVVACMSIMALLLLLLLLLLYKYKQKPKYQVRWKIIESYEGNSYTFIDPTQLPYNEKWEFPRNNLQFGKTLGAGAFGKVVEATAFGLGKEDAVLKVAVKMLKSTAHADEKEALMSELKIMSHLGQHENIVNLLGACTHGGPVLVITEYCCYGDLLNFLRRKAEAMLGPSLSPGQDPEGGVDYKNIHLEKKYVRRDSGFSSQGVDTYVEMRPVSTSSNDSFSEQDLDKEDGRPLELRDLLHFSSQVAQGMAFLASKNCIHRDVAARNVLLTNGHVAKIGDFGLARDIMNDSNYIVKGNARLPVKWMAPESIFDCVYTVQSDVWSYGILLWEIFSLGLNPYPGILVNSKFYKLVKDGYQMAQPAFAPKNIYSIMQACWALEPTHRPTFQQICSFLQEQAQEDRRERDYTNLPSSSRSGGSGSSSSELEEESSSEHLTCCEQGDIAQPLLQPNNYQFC

- inhibition of receptor activation by ligand: < 1 µg/mL
- inhibition of receptor activation by ligand, prebound antibody: < 1 µg/mL
- phosphorylation level relative to the fully stimulated receptor control, antibody added with ligand (densitometry): 40%
- phosphorylation level relative to the fully stimulated receptor control, antibody prebound (densitometry): 6%
- phosphorylation of flk-1 (VEGFR-2), competitive antibody titration: > 0.5 µg/mL
B1: rat anti-mouse flk-1 (VEGFR-2) monoclonal antibody DC-101 (antibody, from another filing, rat IgG1, V domains shown)
VH: EVQLVETGGGLVQPGNSLKLSCATSGFIFSTTWMNWIRQTPGKRLEWLAQIEDKSNNYFISYSESVKGRFTISRDDSKSSVYLQMNNLKEEDTAIYYCSWKYRSNYYFDYWGQGVMVTVSS
VL: DIVLTQSPALAVSLEQRATISCKTSQNVDYYGISYLHWYQQKPGQQPKLLIYEGSNLASGIPARFSGSGSGTDFTLTIDPVEADDIVTYYCQQSKDYPYTFGAGTKLELKR
